According to patent EP4692114A1, “CALCITONIN ANALOGUE, AND DERIVATIVE THEREOF AND USE THEREOF” (Hangzhou Sciwind Biosciences Co., Ltd., priority 2023, dated 2024):
*1 amine or outer side, *2 acyl side, *3 side chain or, on linkers, in order; H or OH if unused. Primed or numbered codes have the meaning given here. The star is where a group is joined. C20 diacid = O=C(O)CCCCCCCCCCCCCCCCCCC(=O)*; C18 diacid = O=C(O)CCCCCCCCCCCCCCCCC(=O)*; γGlu = O=C(O)[C@H](CCC(=O)[*:2])N[*:1]; βAsp = O=C(O)[C@H](CC(=O)[*:2])N[*:1]; Inp′ = not defined here; Trx′ = not defined here; AEEA = NCCOCCOCC(=O)O

B1: calcitonin derivative M27 (peptide)
peptide: {C20 diacid-γGlu}-ISQLSTIVLGRLSQELHRLQDYPRTDVGSGSP-NH2
SMILES: CC[C@H](C)[C@H](NC(=O)CC[C@H](NC(=O)CCCCCCCCCCCCCCCCCCC(=O)O)C(=O)O)C(=O)N[C@@H](CO)C(=O)N[C@@H](CCC(N)=O)C(=O)N[C@@H](CC(C)C)C(=O)N[C@@H](CO)C(=O)N[C@H](C(=O)N[C@H](C(=O)N[C@H](C(=O)N[C@@H](CC(C)C)C(=O)NCC(=O)N[C@@H](CCCNC(=N)N)C(=O)N[C@@H](CC(C)C)C(=O)N[C@@H](CO)C(=O)N[C@@H](CCC(N)=O)C(=O)N[C@@H](CCC(=O)O)C(=O)N[C@@H](CC(C)C)C(=O)N[C@@H](Cc1c[nH]cn1)C(=O)N[C@@H](CCCNC(=N)N)C(=O)N[C@@H](CC(C)C)C(=O)N[C@@H](CCC(N)=O)C(=O)N[C@@H](CC(=O)O)C(=O)N[C@@H](Cc1ccc(O)cc1)C(=O)N1CCC[C@H]1C(=O)N[C@@H](CCCNC(=N)N)C(=O)N[C@H](C(=O)N[C@@H](CC(=O)O)C(=O)N[C@H](C(=O)NCC(=O)N[C@@H](CO)C(=O)NCC(=O)N[C@@H](CO)C(=O)N1CCC[C@H]1C(N)=O)C(C)C)[C@@H](C)O)C(C)C)[C@@H](C)CC)[C@@H](C)O
B2: calcitonin derivative M14 (peptide)
peptide: {C20 diacid-γGlu}-ASQLSTAVLGRLSQELHRLEEYPRTDVGSGSP-NH2
SMILES: CC(C)C[C@H](NC(=O)[C@H](CCCNC(=N)N)NC(=O)CNC(=O)[C@H](CC(C)C)NC(=O)[C@@H](NC(=O)[C@H](C)NC(=O)[C@@H](NC(=O)[C@H](CO)NC(=O)[C@H](CC(C)C)NC(=O)[C@H](CCC(N)=O)NC(=O)[C@H](CO)NC(=O)[C@H](C)NC(=O)CC[C@H](NC(=O)CCCCCCCCCCCCCCCCCCC(=O)O)C(=O)O)[C@@H](C)O)C(C)C)C(=O)N[C@@H](CO)C(=O)N[C@@H](CCC(N)=O)C(=O)N[C@@H](CCC(=O)O)C(=O)N[C@@H](CC(C)C)C(=O)N[C@@H](Cc1c[nH]cn1)C(=O)N[C@@H](CCCNC(=N)N)C(=O)N[C@@H](CC(C)C)C(=O)N[C@@H](CCC(=O)O)C(=O)N[C@@H](CCC(=O)O)C(=O)N[C@@H](Cc1ccc(O)cc1)C(=O)N1CCC[C@H]1C(=O)N[C@@H](CCCNC(=N)N)C(=O)N[C@H](C(=O)N[C@@H](CC(=O)O)C(=O)N[C@H](C(=O)NCC(=O)N[C@@H](CO)C(=O)NCC(=O)N[C@@H](CO)C(=O)N1CCC[C@H]1C(N)=O)C(C)C)[C@@H](C)O
B3: calcitonin derivative M28 (peptide)
peptide: {C20 diacid-γGlu}-SSQLSTSVLGRLSQELHRLQDYPRTDVGSGSP-NH2
SMILES: CC(C)C[C@H](NC(=O)[C@H](CCCNC(=N)N)NC(=O)CNC(=O)[C@H](CC(C)C)NC(=O)[C@@H](NC(=O)[C@H](CO)NC(=O)[C@@H](NC(=O)[C@H](CO)NC(=O)[C@H](CC(C)C)NC(=O)[C@H](CCC(N)=O)NC(=O)[C@H](CO)NC(=O)[C@H](CO)NC(=O)CC[C@H](NC(=O)CCCCCCCCCCCCCCCCCCC(=O)O)C(=O)O)[C@@H](C)O)C(C)C)C(=O)N[C@@H](CO)C(=O)N[C@@H](CCC(N)=O)C(=O)N[C@@H](CCC(=O)O)C(=O)N[C@@H](CC(C)C)C(=O)N[C@@H](Cc1c[nH]cn1)C(=O)N[C@@H](CCCNC(=N)N)C(=O)N[C@@H](CC(C)C)C(=O)N[C@@H](CCC(N)=O)C(=O)N[C@@H](CC(=O)O)C(=O)N[C@@H](Cc1ccc(O)cc1)C(=O)N1CCC[C@H]1C(=O)N[C@@H](CCCNC(=N)N)C(=O)N[C@H](C(=O)N[C@@H](CC(=O)O)C(=O)N[C@H](C(=O)NCC(=O)N[C@@H](CO)C(=O)NCC(=O)N[C@@H](CO)C(=O)N1CCC[C@H]1C(N)=O)C(C)C)[C@@H](C)O
B4: calcitonin derivative M13 (peptide)
peptide: {C20 diacid-γGlu}-ASQLSTAVLGRLSQELHRLEDYPRTDVGSGSP-NH2
SMILES: CC(C)C[C@H](NC(=O)[C@H](CCCNC(=N)N)NC(=O)CNC(=O)[C@H](CC(C)C)NC(=O)[C@@H](NC(=O)[C@H](C)NC(=O)[C@@H](NC(=O)[C@H](CO)NC(=O)[C@H](CC(C)C)NC(=O)[C@H](CCC(N)=O)NC(=O)[C@H](CO)NC(=O)[C@H](C)NC(=O)CC[C@H](NC(=O)CCCCCCCCCCCCCCCCCCC(=O)O)C(=O)O)[C@@H](C)O)C(C)C)C(=O)N[C@@H](CO)C(=O)N[C@@H](CCC(N)=O)C(=O)N[C@@H](CCC(=O)O)C(=O)N[C@@H](CC(C)C)C(=O)N[C@@H](Cc1c[nH]cn1)C(=O)N[C@@H](CCCNC(=N)N)C(=O)N[C@@H](CC(C)C)C(=O)N[C@@H](CCC(=O)O)C(=O)N[C@@H](CC(=O)O)C(=O)N[C@@H](Cc1ccc(O)cc1)C(=O)N1CCC[C@H]1C(=O)N[C@@H](CCCNC(=N)N)C(=O)N[C@H](C(=O)N[C@@H](CC(=O)O)C(=O)N[C@H](C(=O)NCC(=O)N[C@@H](CO)C(=O)NCC(=O)N[C@@H](CO)C(=O)N1CCC[C@H]1C(N)=O)C(C)C)[C@@H](C)O
B5: calcitonin derivative M29 (peptide)
peptide: {C20 diacid-γGlu}-ASQLSTSVLGRLSQELHRLQDYPRTDVGSGSP-NH2
SMILES: CC(C)C[C@H](NC(=O)[C@H](CCCNC(=N)N)NC(=O)CNC(=O)[C@H](CC(C)C)NC(=O)[C@@H](NC(=O)[C@H](CO)NC(=O)[C@@H](NC(=O)[C@H](CO)NC(=O)[C@H](CC(C)C)NC(=O)[C@H](CCC(N)=O)NC(=O)[C@H](CO)NC(=O)[C@H](C)NC(=O)CC[C@H](NC(=O)CCCCCCCCCCCCCCCCCCC(=O)O)C(=O)O)[C@@H](C)O)C(C)C)C(=O)N[C@@H](CO)C(=O)N[C@@H](CCC(N)=O)C(=O)N[C@@H](CCC(=O)O)C(=O)N[C@@H](CC(C)C)C(=O)N[C@@H](Cc1c[nH]cn1)C(=O)N[C@@H](CCCNC(=N)N)C(=O)N[C@@H](CC(C)C)C(=O)N[C@@H](CCC(N)=O)C(=O)N[C@@H](CC(=O)O)C(=O)N[C@@H](Cc1ccc(O)cc1)C(=O)N1CCC[C@H]1C(=O)N[C@@H](CCCNC(=N)N)C(=O)N[C@H](C(=O)N[C@@H](CC(=O)O)C(=O)N[C@H](C(=O)NCC(=O)N[C@@H](CO)C(=O)NCC(=O)N[C@@H](CO)C(=O)N1CCC[C@H]1C(N)=O)C(C)C)[C@@H](C)O
B6: calcitonin derivative M53 (peptide)
peptide: {C20 diacid-βAsp}-ASQLSTAVLGRLSEELHRLQDYPRTDVGSGSP-NH2
SMILES: CC(C)C[C@H](NC(=O)[C@H](CCCNC(=N)N)NC(=O)CNC(=O)[C@H](CC(C)C)NC(=O)[C@@H](NC(=O)[C@H](C)NC(=O)[C@@H](NC(=O)[C@H](CO)NC(=O)[C@H](CC(C)C)NC(=O)[C@H](CCC(N)=O)NC(=O)[C@H](CO)NC(=O)[C@H](C)NC(=O)C[C@H](NC(=O)CCCCCCCCCCCCCCCCCCC(=O)O)C(=O)O)[C@@H](C)O)C(C)C)C(=O)N[C@@H](CO)C(=O)N[C@@H](CCC(=O)O)C(=O)N[C@@H](CCC(=O)O)C(=O)N[C@@H](CC(C)C)C(=O)N[C@@H](Cc1c[nH]cn1)C(=O)N[C@@H](CCCNC(=N)N)C(=O)N[C@@H](CC(C)C)C(=O)N[C@@H](CCC(N)=O)C(=O)N[C@@H](CC(=O)O)C(=O)N[C@@H](Cc1ccc(O)cc1)C(=O)N1CCC[C@H]1C(=O)N[C@@H](CCCNC(=N)N)C(=O)N[C@H](C(=O)N[C@@H](CC(=O)O)C(=O)N[C@H](C(=O)NCC(=O)N[C@@H](CO)C(=O)NCC(=O)N[C@@H](CO)C(=O)N1CCC[C@H]1C(N)=O)C(C)C)[C@@H](C)O
B7: calcitonin derivative M44 (peptide)
peptide: {C18 diacid}-DASQLSTAVLGRLSDELHRLQDYPRTDVGSGSP-NH2
SMILES: CC(C)C[C@H](NC(=O)[C@H](CCCNC(=N)N)NC(=O)CNC(=O)[C@H](CC(C)C)NC(=O)[C@@H](NC(=O)[C@H](C)NC(=O)[C@@H](NC(=O)[C@H](CO)NC(=O)[C@H](CC(C)C)NC(=O)[C@H](CCC(N)=O)NC(=O)[C@H](CO)NC(=O)[C@H](C)NC(=O)[C@H](CC(=O)O)NC(=O)CCCCCCCCCCCCCCCCC(=O)O)[C@@H](C)O)C(C)C)C(=O)N[C@@H](CO)C(=O)N[C@@H](CC(=O)O)C(=O)N[C@@H](CCC(=O)O)C(=O)N[C@@H](CC(C)C)C(=O)N[C@@H](Cc1c[nH]cn1)C(=O)N[C@@H](CCCNC(=N)N)C(=O)N[C@@H](CC(C)C)C(=O)N[C@@H](CCC(N)=O)C(=O)N[C@@H](CC(=O)O)C(=O)N[C@@H](Cc1ccc(O)cc1)C(=O)N1CCC[C@H]1C(=O)N[C@@H](CCCNC(=N)N)C(=O)N[C@H](C(=O)N[C@@H](CC(=O)O)C(=O)N[C@H](C(=O)NCC(=O)N[C@@H](CO)C(=O)NCC(=O)N[C@@H](CO)C(=O)N1CCC[C@H]1C(N)=O)C(C)C)[C@@H](C)O

Each binder was assayed against T1, human amylin receptor (AMY3) on CHO-K1/Gal5/AMY3 cells (human, UniProt P30988 25-474; O60896 24-148) (assay: cell-based or functional assay).
T1 sequence (looked up) 1: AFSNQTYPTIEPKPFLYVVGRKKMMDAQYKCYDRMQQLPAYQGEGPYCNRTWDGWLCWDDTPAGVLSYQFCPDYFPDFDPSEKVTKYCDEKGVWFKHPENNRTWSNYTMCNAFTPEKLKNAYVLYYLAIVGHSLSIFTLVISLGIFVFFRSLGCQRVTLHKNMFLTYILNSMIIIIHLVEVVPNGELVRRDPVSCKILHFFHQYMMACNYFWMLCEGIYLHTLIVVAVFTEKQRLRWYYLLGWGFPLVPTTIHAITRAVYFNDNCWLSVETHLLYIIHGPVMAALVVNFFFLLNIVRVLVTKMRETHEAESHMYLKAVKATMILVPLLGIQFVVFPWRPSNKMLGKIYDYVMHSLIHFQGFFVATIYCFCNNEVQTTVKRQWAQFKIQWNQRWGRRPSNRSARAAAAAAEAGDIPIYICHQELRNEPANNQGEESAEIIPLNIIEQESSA
T1 sequence (looked up) 2: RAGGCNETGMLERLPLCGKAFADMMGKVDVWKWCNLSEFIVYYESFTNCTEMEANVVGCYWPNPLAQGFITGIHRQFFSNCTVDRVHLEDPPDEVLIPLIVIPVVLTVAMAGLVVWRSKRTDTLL

**Q.** B1 was tested. Which “EC50/nM, CRE-luciferase in amylin receptor/CRE-luc CHO cells” value did it give?
**A.** The value was 0.016 nM.

**Q.** With B2 as the binder, how does the “EC50/nM, CRE-luciferase in amylin receptor/CRE-luc CHO cells” value read?
**A.** Its value is 0.017 nM.

**Q.** Which “EC50/nM, CRE-luciferase in amylin receptor/CRE-luc CHO cells” value does the source give for B3 here?
**A.** The value was 0.017 nM.

**Q.** {C20 diacid-Trx′-AEEA-AEEA}-ASQLSTAVLGRLSEELHRLQDYPRTDVGSGSP-NH2 (reading uncertain) [calcitonin derivative M61] was tested. Which “EC50/nM, CRE-luciferase in amylin receptor/CRE-luc CHO cells” value did it give?
**A.** Its value is 0.015 nM.

**Q.** How did the “EC50/nM, CRE-luciferase in amylin receptor/CRE-luc CHO cells” value turn out when B4 was run?
**A.** Its value is 0.017 nM.

**Q.** How did the “EC50/nM, CRE-luciferase in amylin receptor/CRE-luc CHO cells” value turn out when {C20 diacid-Inp′}-ASQLSTAVLGRLSDELHRLQDYPRTDVGSGSP-NH2 [calcitonin derivative M47] was run?
**A.** The value was 0.082 nM.

**Q.** With {C20 diacid-Inp′-AEEA-AEEA}-ASQLSTAVLGRLSEELHRLQDYPRTDVGSGSP-NH2 [calcitonin derivative M62] as the binder, how does the “EC50/nM, CRE-luciferase in amylin receptor/CRE-luc CHO cells” value read?
**A.** The value was 0.016 nM.

**Q.** B5 was tested. Which “EC50/nM, CRE-luciferase in amylin receptor/CRE-luc CHO cells” value did it give?
**A.** The value was 0.017 nM.

**Q.** With {C18 diacid-Trx′}-ASQLSTAVLGRLSDELHRLQDYPRTDVGSGSP-NH2 (reading uncertain) [calcitonin derivative M46] as the binder, how does the “EC50/nM, CRE-luciferase in amylin receptor/CRE-luc CHO cells” value read?
**A.** The value was 0.119 nM.

**Q.** How did the “EC50/nM, CRE-luciferase in amylin receptor/CRE-luc CHO cells” value turn out when B6 was run?
**A.** Its value is 0.017 nM.

**Q.** With B7 as the binder, how does the “EC50/nM, CRE-luciferase in amylin receptor/CRE-luc CHO cells” value read?
**A.** Its value is 0.016 nM.
